Data as given in patent US20150087584A1.

Molecular target: Helicoverpa armigera gut proteases (HGP) (Helicoverpa armigera)
Assay: cell-based or functional assay

Chain of inhibitory repeat domain IRD-7 of Capsicum annuum Pin-II proteinase inhibitors (CanPIs) (O49146 other isoform, or with tags, fused parts or gaps): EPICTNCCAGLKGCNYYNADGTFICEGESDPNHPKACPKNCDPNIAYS

Which HGPI activity of the IRD alone at its IC50 concentration does the source give for “inhibitory repeat domain IRD-7 of Capsicum annuum Pin-II proteinase inhibitors (CanPIs) (from UniProt O49146 152-198)” here?
Its HGPI activity of the IRD alone at its IC50 concentration is 49%.

And the inhibition of HGP activity (BApNA and Azocasein substrates)?
Its inhibition of HGP activity (BApNA and Azocasein substrates) is 40 to 45%.
